{"source": "patent US7960155B1", "about": "“Cytochrome p450 monooxygenases and their use for oxidizing organic compounds” (BASF Aktiengesellschaft, priority 1999, dated 2011)", "key": {"[1]": {"assay": "Activity test for the indole hydroxylation (kinetic parameters)", "assay_type": "biochemical", "details": "excess of purified enzyme and high indole concentration for the wild type", "procedure": "The indole hydroxylation activity was tested in a solution which contained 8 μl of a 10-500 mM indole solution in DMSO, 850 μl of tris/HCl buffer (0.1 M, pH 8.2) and 0.6 nmol of P450 BM-3 wild type or mutant in a final volume of 1 ml. The mixture was preincubated for 9 min before the reaction was started by addition of 50 μl of an aqueous 1 mM solution of NADPH. The reaction was stopped after 20 sec by addition of 60 μl of 1.2 M KOH. Within 5 to 30 sec (under aerobic conditions), the enzyme products were converted completely into indigo [Δ^2,2′-biindoline]-3,3′-dione) and indirubin ([Δ^2,3′-biindoline]-2′,3-dione). The indigo production was determined by means of its absorption at 670 nm. […] A linear curve was obtained for indigo production in a reaction time of 40 sec using 0.6 nmol of wild type or P450 BM-3 mutant and 0.05 to 5.0 mM of indole. […] The formation of indirubin was neglected in the determination of the kinetic parameters. The NADPH consumption was determined at 340 nm and calculated as described (17) using an extinction coefficient of 6.2 mM^−1 cm^−1.\nPure samples of the wild-type enzyme P450 BM-3 and of the mutants Leu188Gln, Phe87Val, F87L188 and F87L188A74 were used for the determination of the kinetic parameters of indole hydroxylation."}, "[2]": {"assay": "Production of indigo using isolated enzymes (colour reaction with indole and NADPH)", "assay_type": "biochemical", "source_text": "It is known that indigo is accessible from indole by microbial transformation (24-26). None of these microbial systems, however, contained a P450 monooxygenase. According to the invention, the catalytic activity of the pure enzyme for indole was first determined. The mutant F87L188A74 was mixed with indole. No color reaction could be observed. […] By adjustment of the pH of the reaction mixture to a value of approximately 11, 30 sec after addition of NADPH, the blue coloration was visible within a few seconds. […] The blue pigment was extracted using ethyl acetate and analyzed by TLC. The blue pigment again separated into a more rapidly running blue component and into a slower running red component. The Rf values and the absorption spectra were identical to those values of the extracts from the fermentation broth. The F87L188A74 mutant of P450 BM-3 is thus an indole hydroxylase."}}}
{"molecule": "WT: wild-type cytochrome P450 monooxygenase BM-3 from Bacillus megaterium (SEQ ID NO:2) (protein, listed as Bacillus megaterium) TIKEMPQPKTFGELKNLPLLNTDKPVQALMKIADELGEIFKFEAPGRVTRYLSSQRLIKEACDESRFDKNLSQALKFVRDFAGDGLFTSWTHEKNWKKAHNILLPSFSQQAMKGYHAMMVDIAVQLVQKWERLNADEHIEVPEDMTRLTLDTIGLCGFNYRFNSFYRDQPHPFITSMVRALDEAMNKLQRANPDDPAYDENKRQFQEDIKVMNDLVDKIIADRKASGEQSDDLLTHMLNGKDPETGEPLDDENIRYQIITFLIAGHETTSGLLSFALYFLVKNPHVLQKAAEEAARVLVDPVPSYKQVKQLKYVGMVLNEALRLWPTAPAFSLYAKEDTVLGGEYPLEKGDELMVLIPQLHRDKTIWGDDVEEFRPERFENPSAIPQHAFKPFGNGQRACIGQQFALHEATLVLGMMLKHFDFEDHTNYELDIKETLTLKPEGFVVKAKSKKIPLGGIPSPSTEQSAKKVRKKAENAHNTPLLVLYGSNMGTAEGTARDLADIAMSKGFAPQVATLDSHAGNLPREGAVLIVTASYNGHPPDNAKQFVDWLDQASADEVKGVRYSVFGCGDKNWATTYQKVPAFIDETLAAKGAENIADRGEADASDDFEGTYEEWREHMWSDVAAYFNLDIENSEDNKSTLSLQFVDSAADMPLAKMHGAFSTNVVASKELQQPGSARSTRHLEIELPKEASYQEGDHLGVIPRNYEGIVNRVTARFGLDASQQIRLEAEEEKLAHLPLAKTVSVEELLQYVELQDPVTRTQLRAMAAKTVCPPHKVELEALLEKQAYKEQVLAKRLTMLELLEKYPACEMKFSEFIALLPSIRPRYYSISSSPRVDEKQASITVSVVSGEAWSGYGEYKGIASNYLAELQEGDTITCFISTPQSEFTLPKDPETPLIMVGPGTGVAPFRGFVQARKQLKEQGQSLGEAHLYFGCRSPHEDYLYQEELENAQSEGIITLHTAFSRMPNQPKTYVQHVMEQDGKKLIELLDQGAHFYICGDGSQMAPAVEATLMKSYADVHQVSEADARLWLQQLEEKGRYAKDVWAG", "values": [{"measurement": "indole oxidation activity (in words)", "setting": "[1]", "value": "not able to oxidize indole"}, {"measurement": "blue pigment formation with pure enzyme, indole and NADPH", "setting": "[2]", "value": "always negative"}]}
